B1: 1D1 human monoclonal antibody against the RBD of SARS-CoV-2 (antibody, V domains shown)
VH: EVLLVESGGGLIQPGGSLRLSCAASGFTVSSNYMIWVRQAPGKGLEWVSLIYSGGSTFYADSVKGRFIISRDSSKNTLYLQMNSLRAEDTAVYYCAREPYGDKAWGQGTLVTVSS
VL: DIQMTQSPSSLSASVGDRVTITCQASQDINKYLNWYQQKPGKAPKPLISDTSNLQPGVPSRFSGSGAGTDFTLTISSLQPEDIATYYCQQYDNLPITFGQGTRLEIK
B2: 3D2 human monoclonal antibody against the RBD of SARS-CoV-2 (antibody, V domains shown)
VH: EVQLVQSGAEVKKPGDSLKISCKGSGYSFANYWIGWVRQKPGKGLEWMGIIYPGDSDTRYSPSSLGQVSISVDKSISTAYLQWSSLKASDTAMYYCARHPIHGYGSGSLYNPDYWGQGTLVTVSS
VL: QSVLTQPPSVSAAPGQKVTISCSGSNSNIGINYVSWYQQLPETAPKLLIYENNQRPSGIPDRFSGSKSGTSATLGITGLQTGDEADYYCGTWDTSLGAYVFGTGTKVTVL
notes: also called 3D2 mAb

Molecular target: wild-type SARS-CoV-2 RBD-His protein (SARS-CoV-2, wild-type, UniProt P0DTC2)
Test: SPR
Conditions: both partners purified

Binder	Kd [pM]	koff [s⁻¹]	kon [M⁻¹ s⁻¹]	t1/2 [min]
B1	242	0.00015	620000	–
B2	789	0.000268	339000	43.1

From PMC10159178 (PLOS ONE, 2023)
